Assay results published in patent US20210246451, “APTAMER FOR ADAMTS5 AND USE FOR APTAMER FOR ADAMTS5” (RIBOMIC INC., published 2021).

T1: ADAMTS5 (UniProt Q9UNA0 Q9UNA0:262-622)
T1 sequence: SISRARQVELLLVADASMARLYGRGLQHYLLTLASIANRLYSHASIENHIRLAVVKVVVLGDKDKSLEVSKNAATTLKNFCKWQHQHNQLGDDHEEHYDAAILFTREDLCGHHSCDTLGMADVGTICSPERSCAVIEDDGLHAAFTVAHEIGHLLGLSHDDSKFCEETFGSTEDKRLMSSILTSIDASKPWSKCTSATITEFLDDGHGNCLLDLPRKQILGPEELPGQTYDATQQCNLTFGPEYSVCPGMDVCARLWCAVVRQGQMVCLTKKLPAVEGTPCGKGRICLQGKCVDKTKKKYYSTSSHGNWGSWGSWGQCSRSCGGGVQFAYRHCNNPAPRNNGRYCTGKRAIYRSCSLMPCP


Target: T1, ADAMTS5
Test: inhibition; method 1
Conditions: tags: R&D Systems
Protocol: (§1) Whether an aptamer having the nucleotide sequence shown in SEQ ID NO: 1 inhibits the enzyme activity of ADAMTS5 was evaluated by the following method. As a substrate of ADAMTS5, the G1-IGD-G2 domain of aggrecan (manufactured by R&D systems) was used. ADAMTS5 specifically cleaves in between the 392nd glutamic acid and the 393rd alanine in the G1-IGD-G2 domain and produces two fragments. These fragments have faster electrophoretic mobility than uncleaved G1-IGD-G2. Thus, the enzyme activity of ADAMTS5 can be measured by quantifying the band intensity of G1-IGD-G2 by SDS-PAGE electrophoresis. The assay was performed in a solution A buffer with a reaction mixture volume of 10 μL. First, a mixture (10 μL) of a nucleic acid and ADAMTS5 was prepared and incubated at 25° C. for 15 min. To a substrate solution (5 μL) diluted with solution A was added a mixture (5 μL) of the nucleic acid and ADAMTS5 to start the enzyme reaction. The final concentration of ADAMTS5 in the reaction solution was 5 nM, and the final substrate concentration was 50 μg/mL. The reaction solution was incubated at 37° C. for 2 hr, 2 μL of solution D was added, and the mixture was heated at 95° C. for 2 min to stop the enzyme reaction of ADAMTS5. Solution D contains 0.25 M tris (pH 6.8), 10% SDS, 50% glycerol, 0.25% bromo phenolblue, and 20% 2-mercaptoethanol. The heat-treated reaction solution was electrophoresed by 7.5% SDS-PAGE and stained with SYPRO Orange (manufactured by Sigma-Aldrich). The staining was performed according to the manual of Sigma-Aldrich and detected using STORM840 manufactured by GE Healthcare. […] The amount of uncleaved substrate in each reaction solution was quantified from the band intensity and the standard curve. The substrate cleavage efficiency of ADAMTS5 under these reaction conditions was 80-100%. The inhibition rate of the test substance was calculated using the following equation.
The aptamers having the sequences shown in SEQ ID NOs: 28(l)-28(18) (SEQ ID NO: 28 lineage) and SEQ ID NOs: 29(1)-29(3) (SEQ ID NO: 29 lineage) were all produced by chemical synthesis.

Binder | activity [% inhibition]
CGUAGGGGCCUCCACAGCGUAAGCUUGGACUUAAACCACG (ssRNA, as SEQ 28 plus 2'-OMe at A4) [28(2)] | 68.7
CGUAGGGGCCUCCACAGCAUUCGCUUGGACACAAACCACG (ssRNA, as SEQ 29 plus 2'-F at G7,G28 and 2'-OMe at A31; 3' idT) [29(2)] | 89.8
CGUAGGGGCCUCCACAGCGUAAGCUUGGACUUAAACCACG (ssRNA, as SEQ 28 plus 2'-F at G7) [28(7)] | 84.1
CGUAGGGGCCUCCACAGCGUAAGCUUGGACUUAAACCACG (ssRNA, as SEQ 28 plus 2'-F at A29) [28(11)] | 42.6
CGUAGGGGCCUCCACAGCGUAAGCUUGGACUUAAACCACG (ssRNA, as SEQ 28 plus 2'-F at G28) [28(10)] | 76.6
CGUAGGGGCCUCCACAGCAUUCGCUUGGACACAAACCACG (ssRNA, as SEQ 29 plus 2'-F at G7,G28; 3' idT) [29(3)] | 80.9
CGUAGGGGCCUCCACAGCGUAAGCUUGGACUUAAACCACG (ssRNA, as SEQ 28 plus 2'-F at A4) [28(6)] | 76.8
CGUAGGGGCCUCCACAGCGUAAGCUUGGACUUAAACCACG (ssRNA, as SEQ 28 plus 2'-F at A33) [28(12)] | 67.8
CGUAGGGGCCUCCACAGCGUAAGCUUGGACUUAAACCACG (ssRNA, as SEQ 28 plus 2'-OMe at 4,20-22) [28(5)] | 77.3
CGUAGGGGCCUCCACAGCGUAAGCUUGGACUUAAACCACG (ssRNA, as SEQ 28 plus 2'-F at A14) [28(9)] | 69.7
CGUAGGGGCCUCCACAGCGUAAGCUUGGACUUAAACCACG (ssRNA, as SEQ 28 plus 2'-OMe at 4,20-22,31; 3' idT) [28(13)] | 86.1
CGUAGGGGCCUCCACAGCGUAAGCUUGGACUUAAACCACG (ssRNA, as SEQ 28 plus 2'-F at G8) [28(8)] | 71.1
CGUAGGGGCCUCCACAGCGUAAGCUUGGACUUAAACCACG (ssRNA, as SEQ 28 plus 2'-OMe at 4,20-22,31; 2'-F at G7,G28; 3' idT) [28(14)] | 90.6

Target: T1, ADAMTS5
Test: inhibition; 30 nM
Conditions: tags: R&D Systems
Protocol: as §1
(§2) The nucleic acids shown in SEQ ID NOs: 3(1)-3(16) were all produced by chemical synthesis. Whether these nucleic acids inhibit the enzyme activity of ADAMTS5 was determined by a method similar to that in Example 1.

Binder | activity [% inhibition]
GGAUUGGGGCCUCCACAGCUGCUCAGCUUGGACUAAACCAAUCC (ssRNA, 2'-OMe at 1-3,42-44; 2'-F other pyrimidines) [3(1)] | 49.8
GGAUUGGGGCCUCCACAGCUGCUCAGCUUGGACUAAACCAAUCC (ssRNA, 2'-OMe at 4-6,39-41; 2'-F other pyrimidines) [3(2)] | 53.6

Target: T1, ADAMTS5
Test: SPR; RU ratio >=40%
Conditions: tags: R&D Systems

Binder | binding result
GGGUAUUGGGGCCUCCACAUGGAUACAUUGGACUAAACCAACUCGA (ssRNA, 2'-F pyrimidines) [SEQ ID NO: 41] | binds
GGGUAUUGGGGCCUCCACGUAACUAAACUGGACUAAACCAACUCGA (ssRNA, 2'-F pyrimidines) [SEQ ID NO: 39] | binds
GGGUAUUGGGGCCUCCACGCAAUGGUGCUGGACUAAACCAACUCGA (ssRNA, 2'-F pyrimidines) [SEQ ID NO: 40] | binds
GGGUAUUGGGGCCUCCACAGAUAAUUCUUGGACUAAACCAACUCGA (ssRNA, 2'-F pyrimidines) [SEQ ID NO: 42] | binds
GGGUAUUGGGGCCUCCACAGAACUUUCUUGGACUAAACCAACUCGA (ssRNA, 2'-F pyrimidines) [SEQ ID NO: 44] | binds
GGGUAUUGGGGCCUCCACAGAAAAGUCUUGGACUAAACCAACUCGA (ssRNA, 2'-F pyrimidines) [SEQ ID NO: 45] | binds
GGGUAUUGGGGCCUCCACAGAAAAUUCUUGGACUAAACCAACUCGA (ssRNA, 2'-F pyrimidines) [SEQ ID NO: 43] | binds

Target: T1, ADAMTS5
Test: inhibition; 30 nM
Conditions: tags: R&D Systems
Remark: another data set of the same source
Protocol: as §1
Whether these aptamers inhibit the enzyme activity of ADAMTS5 was tested by a method similar to that in Example 1. The final concentration of the nucleic acid was fixed to 30 nM in the test.

Binder | activity [% inhibition]
GGCUUGGGGCCUCCACAGCUGUCAGCUUGGACUAAACCAAGCC (ssRNA, 2'-F pyrimidines) [SEQ ID NO: 6] | 33.7
GGAUUGGGGCCUCCACAGCGUCGCUUGGACUAAACCAAUCC (ssRNA, 2'-F pyrimidines) [SEQ ID NO: 9] | 5.9
GGCUUGGGGCCUCCACAGCUGCUCAGCUUGGACUAAACCAAGCC (ssRNA, 2'-F pyrimidines) [SEQ ID NO: 4] | 23
GGCUUGGGGCCUCCACAGCGCUCGCUUGGACUAAACCAAGCC (ssRNA, 2'-F pyrimidines) [SEQ ID NO: 5] | 27

Target: T1, ADAMTS5
Test: inhibition; 10 nM
Conditions: tags: R&D Systems
Protocol: as §1, §2

Binder | activity [% inhibition]
GGAUUGGGGCCUCCACAGCUGCUCAGCUUGGACUAAACCAAUCC (ssRNA, 2'-OMe at 1-7,9,17-28,36,38-44; 2'-F other pyrimidines) [3(10)] | 25.6
GGAUUGGGGCCUCCACAGCUGCUCAGCUUGGACUAAACCAAUCC (ssRNA, 2'-OMe at 1-7,17-28,31,36,38-44; 2'-F other pyrimidines) [3(13)] | 37
GGAUUGGGGCCUCCACAGCUGCUCAGCUUGGACUAAACCAAUCC (ssRNA, 2'-OMe at 1-8,17-28,36,38-44; 2'-F other pyrimidines) [3(9)] | 25.8
GGAUUGGGGCCUCCACAGCUGCUCAGCUUGGACUAAACCAAUCC (ssRNA, 2'-OMe at 1-7,15,17-28,36,38-44; 2'-F other pyrimidines) [3(11)] | 48.1
GGAUUGGGGCCUCCACAGCUGCUCAGCUUGGACUAAACCAAUCC (ssRNA, 2'-OMe at 1-7,17-28,32,36,38-44; 2'-F other pyrimidines) [3(14)] | 1.2
GGAUUGGGGCCUCCACAGCUGCUCAGCUUGGACUAAACCAAUCC (ssRNA, 2'-OMe at 1-7,17-28,36-44; 2'-F other pyrimidines) [3(16)] | 53.6
GGAUUGGGGCCUCCACAGCUGCUCAGCUUGGACUAAACCAAUCC (ssRNA, 2'-OMe at 1-7,17-28,35,36,38-44; 2'-F other pyrimidines) [3(15)] | 27.6
GGAUUGGGGCCUCCACAGCUGCUCAGCUUGGACUAAACCAAUCC (ssRNA, 2'-OMe at 1-7,17-28,36,38-44; 2'-F other pyrimidines) [3(8)] | 52.8
GGAUUGGGGCCUCCACAGCUGCUCAGCUUGGACUAAACCAAUCC (ssRNA, 2'-OMe at 1-7,17-28,30,36,38-44; 2'-F other pyrimidines) [3(12)] | 57.5

Target: T1, ADAMTS5
Test: inhibition; 10 nM aptamer, aggrecan G1-IGD-G2 cleavage, method 1
Conditions: tags: R&D Systems
Protocol: as §1
The aptamers having the sequences shown in SEQ ID NOs: 10(1)-10(8) and 11(1)-11(35), SEQ ID NO: 13-15 were all produced by chemical synthesis.

Binder | activity [% inhibition]
AUUGGGGCCUCCACAGCGCUCGCUUGGACUAAACCAAU (ssRNA, 2'-OMe at 1-5,15-26,32-38; 2'-F at 8-12,14,29,30; PS between 11 and 12) [11(22)] | 49.8
AUUGGGGCCUCCACAGCGCUCGCUUGGACUAAACCAAU (ssRNA, 2'-OMe at 1-5,15-26,32-38; 2'-F at 8-12,14,29,30; PS between 27 and 28) [11(27)] | 48.2
AUUGGGGCCUCCACAGCGCUCGCUUGGACUAAACCAAU (ssRNA, 2'-OMe at 1-5,15-26,32-38; 2'-F at 8-12,14,29,30; PS between 13 and 14) [11(24)] | 46.3
AUUGGGGCCUCCACAGCGCUCGCUUGGACUAAACCAAU (ssRNA, 2'-OMe at 1-5,15-26,32-38; 2'-F at 8-12,14,29,30; PS between 26 and 27) [11(26)] | 47.2
AUUGGGGCCUCCACAGCGCUCGCUUGGACUAAACCAAU (ssRNA, 2'-OMe at 1-5,15-26,32-38; 2'-F at 8-12,14,29,30; PS between 28 and 29) [11(28)] | 44.8
AUUGGGGCCUCCACAGCGCUCGCUUGGACUAAACCAAU (ssRNA, 2'-OMe at 1-5,15-26,32-38; 2'-F at 8-12,14,29,30; PS between 12 and 13) [11(23)] | 47.9
AUUGGGGCCUCCACAGCGCUCGCUUGGACUAAACCAAU (ssRNA, 2'-OMe at 1-5,15-26,32-38; 2'-F at 8-12,14,29,30; PS between 29 and 30) [11(29)] | 56.5
AUUGGGGCCUCCACAGCGCUCGCUUGGACUAAACCAAU (ssRNA, 2'-OMe at 1-5,15-26,32-38; 2'-F at 8-12,14,29,30; PS between 31 and 32) [11(31)] | 56.3
